Experimental findings from patent publication US20030229203 are described below.

This data set addresses T1, RANTES(1-68), P13501.
T1 chain: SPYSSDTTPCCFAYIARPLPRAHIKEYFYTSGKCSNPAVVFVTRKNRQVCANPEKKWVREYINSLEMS

B1: enzymatically deficient (E-) recombinant soluble human CD26 (sCD26) (protein)
chain: NKGTDDATADSRKTYTLTDYLKNTYRLKLYSLRWISDHEYLYKQENNILVFNAEYGNSSVFLENSTFDEFGHSINDYSISPDGQFILLEYNYVKQWRHSYTASYDIYDLNKRQLITEERIPNNTQWVTWSPVGHKLAYVWNNDIYVKIEPNLPSYRITWTGKEDIIYNGITDWVYEEEVFSAYSALWWSPNGTFLAYAQFNDTEVPLIEYSFYSDESLQYPKTVRVPYPKAGAVNPTVKFFVVNTDSLSSVTNATSIQITAPASMLIGDHYLCDVTWATQERISLQWLRRIQNYSVMDICDYDESSGRWNCLVARQHIEMSTTGWVGRFRPSEPHFTLDGNSFYKIISNEEGYRHICYFQIDKKDCTFITKGTWEVIGIEALTSDYLYYISNEYKGMPGGRNLYKIQLSDYTKVTCLSCELNPERCQYYSVSFSKEAKYYQLRCSGPGLPLYTLHSSVNDKGLRVLEDNSALDKMLQNVQMPSKKLDFIILNETKFWYQMILPPHFDKSKKYPLLLDVYAGPCSQKADTVFRLNWATYLASTENIIVASFDGRGSGYQGDKIMHAINRRLGTFEVEDQIEAARQFSKMGFVDNKRIAIWGWAYGGYVTSMVLGSGSGVFKCGIAVAPVSRWEYYDSVYTERYMGLPTPEDNLDHYRNSTVMSRAENFKQVEYLLIHGTADDNVHFQQSAQISKALVDVGVDFQAMWYTDEDHGIASSTAHQHIYTHMSHFIKQCFSLP
For B1, the “hydrolysis of rhRANTES by sCD26 (ES-MS of cleavage products)” value is “shortened RANTES was not generated by incubation of the chemokine with a mutant sCD26 deficient in enzyme activity”.
